According to patent publication US20250092140A1 (SHENGHE CHINA BIOPHARMACEUTICAL, published 2025):

T1: human-NKP30-His (human, UniProt O14931 19-138)
T1 construct: Bought protein; also called NKP30 protein; NKP30-his protein; not shown: His tag
T1 sequence (looked up): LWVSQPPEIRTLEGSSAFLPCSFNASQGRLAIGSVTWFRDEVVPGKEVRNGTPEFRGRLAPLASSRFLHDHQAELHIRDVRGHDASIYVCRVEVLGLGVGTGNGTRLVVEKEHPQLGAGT

B1: constructed antibody B23 (bispecific antibody, human IgG4 S228P, kappa)
heavy: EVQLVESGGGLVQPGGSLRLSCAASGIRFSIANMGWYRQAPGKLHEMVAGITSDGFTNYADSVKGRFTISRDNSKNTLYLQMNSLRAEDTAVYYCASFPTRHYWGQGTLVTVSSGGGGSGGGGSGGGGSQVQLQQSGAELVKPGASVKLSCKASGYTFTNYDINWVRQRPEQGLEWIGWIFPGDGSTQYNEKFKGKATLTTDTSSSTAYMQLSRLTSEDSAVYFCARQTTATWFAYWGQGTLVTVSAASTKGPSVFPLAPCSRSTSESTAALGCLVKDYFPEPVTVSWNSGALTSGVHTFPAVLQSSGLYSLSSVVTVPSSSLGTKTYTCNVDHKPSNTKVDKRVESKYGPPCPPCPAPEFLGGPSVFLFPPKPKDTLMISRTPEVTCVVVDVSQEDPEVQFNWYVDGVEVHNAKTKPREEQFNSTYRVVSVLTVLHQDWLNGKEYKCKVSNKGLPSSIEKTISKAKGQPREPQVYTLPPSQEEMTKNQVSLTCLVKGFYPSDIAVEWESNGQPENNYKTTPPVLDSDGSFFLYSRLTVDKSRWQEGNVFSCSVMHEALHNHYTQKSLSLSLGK
light: DIVMTQSPATLSVTPGDRVSLSCRASQSISDYLHWYQQKSHESPRLLIKYASQSISGIPSRFSGSGSGSDFTLSINSVEPEDVGVYYCQNGHSFPLTFGAGTKLELKRTVAAPSVFIFPPSDEQLKSGTASVVCLLNNFYPREAKVQWKVDNALQSGNSQESVTEQDSKDSTYSLSSTLTLSKADYEKHKVYACEVTHQGLSSPVTKSFNRGEC
notes: IgG4 subtype
B2: constructed antibody A24 (bispecific antibody, human IgG1, kappa)
heavy: not shown
light: B1 light
notes: IgG1 subtype
B3: constructed antibody D28 (bispecific antibody, human IgG4 S228P, kappa)
heavy: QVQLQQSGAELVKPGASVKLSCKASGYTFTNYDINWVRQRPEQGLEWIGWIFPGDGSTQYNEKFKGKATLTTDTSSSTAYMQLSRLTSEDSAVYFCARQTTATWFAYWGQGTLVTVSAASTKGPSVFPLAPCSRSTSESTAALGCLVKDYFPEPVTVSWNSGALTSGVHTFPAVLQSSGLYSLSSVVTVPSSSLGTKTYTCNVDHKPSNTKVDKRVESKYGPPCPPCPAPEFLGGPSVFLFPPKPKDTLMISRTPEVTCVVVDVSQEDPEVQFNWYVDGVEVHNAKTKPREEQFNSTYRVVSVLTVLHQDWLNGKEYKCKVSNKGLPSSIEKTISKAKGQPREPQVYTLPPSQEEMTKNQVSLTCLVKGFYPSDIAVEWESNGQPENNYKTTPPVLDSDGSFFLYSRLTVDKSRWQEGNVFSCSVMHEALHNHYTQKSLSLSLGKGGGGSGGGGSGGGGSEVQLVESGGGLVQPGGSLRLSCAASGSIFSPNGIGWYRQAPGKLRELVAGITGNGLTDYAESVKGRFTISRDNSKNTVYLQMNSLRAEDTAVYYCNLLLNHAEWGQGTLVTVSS
light: B1 light
notes: IgG4 subtype
B4: constructed antibody A25 (bispecific antibody, human IgG1, kappa)
heavy: not shown
light: B1 light
notes: IgG1 subtype

target: T1, human-NKP30-His; test: ELISA, human-NKP30-His coated
Protocol: The human-NKP30-His (purchased from ACRO Biosystems) was diluted to 0.5 μg/mL using pH 7.4 PBS buffer and 100 μL per well was added to a 96-well ELISA plate and coated overnight at 4° C. The plates were closed with 1% BSA blocking solution for 1 hour and washed 3 times with PBST. […] The plate was washed 3 times with PBST and HRP-labelled goat anti-human IgG Fc was diluted 1:20000 with sample diluent, 100 μL for each well was added and incubated for 1 h at room temperature. After washing the plate 4 times with PBST, 100 μL of TMB substrate was added into each well and incubated for 10 min at room temperature, avoiding light. Then 100 μL of 1 M HCl was added into each well to terminate the colour development reaction. The absorbance value of each well in the 96-well plate was measured on a multifunctional enzyme standard at a wavelength of 450 nm and a reference wavelength of 570 nm, absorbance value (OD) per well=OD_{450 nm}−OD_{570 nm}. The concentration of the constructed antibody was logarithmically used as the horizontal coordinate, the measured absorbance value per well as the vertical coordinate, and the Sigmoidal dose-response (Variable Slope) method (Graph Pad Prism Software, Graph Pad Software, San Diego, California) was selected for non-linear regression to obtain the binding curve between the target antibody and NKP30 protein.

Row | binding result | Binder
1 | binds | B1
2 | binds | B2
3 | binds | B3
4 | binds | B4
